Results published in the Human Domainome abundance scans (Beltran et al. 2025).
± gives the uncertainty stated by the source.

B1: Far upstream element-binding protein 3, residues 75 to 150; numbered along this chain, Q96I24 (parent)
chain: RTVITEEFKVPDKMVGFIIGRGGEQISRIQAESGCKIQIASESSGIPERPCVLTGTPESIEQAKRLLGQIVDRCRN
B2: Storkhead-box protein 2, residues 64 to 141; numbered along this chain, Q9P2F5 (parent)
chain: SPISQSQFIPLGEILCLAISAMNSARKPVTQEALMEHLTTCFPGVPTPSQEILRHTLNTLVRERKIYPTPDGYFIVTP

Variants of: B1
Test: abundance fitness (aPCA) (normalised: wild type 0, dead -1); higher = more abundant; growth selection in yeast, the domain comes from the species named
Settings: Homo sapiens
R49P showed an abundance fitness of -0.182 ± 0.048.
Variant K36Q has an abundance fitness of -0.065 ± 0.045.
Work on K36D yielded an abundance fitness of 0.001 ± 0.054.
With I29E the abundance fitness was -0.621 ± 0.039.
T54G showed an abundance fitness of -0.512 ± 0.041.
T54Y showed an abundance fitness of -0.102 ± 0.071.
C74H showed an abundance fitness of 0.031 ± 0.049.
In the case of Q25H, the abundance fitness is reported as -0.077 ± 0.057.
Work on Q38H yielded an abundance fitness of -0.059 ± 0.062.
For Q38P, the abundance fitness was -0.829 ± 0.074.
In the case of S59Y, the abundance fitness is reported as -0.675 ± 0.077.
S59K gave an abundance fitness of -0.161 ± 0.058.
Work on S59N yielded an abundance fitness of -0.013 ± 0.082.
Variant K13W has an abundance fitness of -0.142 ± 0.032.
In the case of A31E, the abundance fitness is reported as 0.025 ± 0.034.
With P50D the abundance fitness was -0.079 ± 0.045.
V10G showed an abundance fitness of -0.634 ± 0.03.
L67H gave an abundance fitness of -0.908 ± 0.21.
L67S gave an abundance fitness of -0.811 ± 0.049.
For L67R, the abundance fitness was -1.01 ± 0.051.
With M14R the abundance fitness was -0.423 ± 0.029.
With M14C the abundance fitness was -0.063 ± 0.048.
For E61P, the abundance fitness was -0.553 ± 0.044.
E61H gave an abundance fitness of -0.031 ± 0.06.
I26M gave an abundance fitness of -0.052 ± 0.042.
In the case of I26S, the abundance fitness is reported as -0.436 ± 0.035.
L53G showed an abundance fitness of -0.971 ± 0.044.
For L53R, the abundance fitness was -1.25 ± 0.066.
Work on I4C yielded an abundance fitness of -0.092 ± 0.045.
With F17G the abundance fitness was -0.06 ± 0.029.
Variant R1L has an abundance fitness of -0.079 ± 0.054.
With R1P the abundance fitness was -0.236 ± 0.1.
In the case of R1N, the abundance fitness is reported as 0.063 ± 0.071.
With F8L the abundance fitness was -0.097 ± 0.03.
Q62C gave an abundance fitness of -0.011 ± 0.033.
Variant Q62Y has an abundance fitness of -0.096 ± 0.044.
With T56I the abundance fitness was -0.225 ± 0.059.
With S27T the abundance fitness was 0.026 ± 0.041.
S27E showed an abundance fitness of -0.014 ± 0.043.
In the case of G20P, the abundance fitness is reported as -0.347 ± 0.041.
G20L showed an abundance fitness of -0.474 ± 0.035.
With G20W the abundance fitness was -0.483 ± 0.037.
G16L showed an abundance fitness of -0.148 ± 0.032.
G16R gave an abundance fitness of -0.037 ± 0.028.
Work on G16F yielded an abundance fitness of -0.223 ± 0.063.
For E24Y, the abundance fitness was 0.062 ± 0.053.
Work on N76M yielded an abundance fitness of -0.008 ± 0.077.
N76E gave an abundance fitness of -0.025 ± 0.067.
Variant N76A has an abundance fitness of 0.036 ± 0.055.
G23V gave an abundance fitness of -0.193 ± 0.029.
In the case of G23D, the abundance fitness is reported as -0.091 ± 0.044.
Work on G23R yielded an abundance fitness of -0.056 ± 0.025.
Variant G23S has an abundance fitness of -0.087 ± 0.031.
In the case of E7P, the abundance fitness is reported as -0.136 ± 0.043.
Variant E7D has an abundance fitness of -0.02 ± 0.047.
Variant E7R has an abundance fitness of -0.057 ± 0.027.
With E32Q the abundance fitness was 0.016 ± 0.04.
Work on G45R yielded an abundance fitness of -0.055 ± 0.026.
G45E showed an abundance fitness of -0.052 ± 0.032.
In the case of G45M, the abundance fitness is reported as -0.101 ± 0.037.
S43M gave an abundance fitness of -0.079 ± 0.047.
L66M gave an abundance fitness of -0.038 ± 0.04.
For L66F, the abundance fitness was -0.16 ± 0.07.
In the case of L66K, the abundance fitness is reported as -0.066 ± 0.046.
Variant Q69I has an abundance fitness of 0.02 ± 0.062.
For D72K, the abundance fitness was -0.048 ± 0.049.
Work on D72Q yielded an abundance fitness of -0.086 ± 0.041.
Variant E42P has an abundance fitness of -0.037 ± 0.047.
Work on E42G yielded an abundance fitness of -0.013 ± 0.028.
Work on R21N yielded an abundance fitness of 0.004 ± 0.063.
For P57E, the abundance fitness was -0.045 ± 0.045.
With I18R the abundance fitness was -0.425 ± 0.028.
I18G gave an abundance fitness of -0.272 ± 0.027.
For S44N, the abundance fitness was -0.053 ± 0.054.
Variant G55Q has an abundance fitness of -1.18 ± 0.083.
G55Y showed an abundance fitness of -1.28 ± 0.17.
G55F showed an abundance fitness of -1.17 ± 0.16.
K64V gave an abundance fitness of -0.35 ± 0.031.
In the case of K64Y, the abundance fitness is reported as -0.505 ± 0.062.
For C51D, the abundance fitness was -0.633 ± 0.067.
In the case of G68A, the abundance fitness is reported as -0.066 ± 0.033.
Variant V52T has an abundance fitness of -0.044 ± 0.038.
T5L showed an abundance fitness of -0.314 ± 0.044.
Work on S33A yielded an abundance fitness of -0.138 ± 0.034.
S33T showed an abundance fitness of -0.063 ± 0.042.
Variant V3T has an abundance fitness of -0.098 ± 0.043.
For V3W, the abundance fitness was -0.106 ± 0.035.
Variant V3I has an abundance fitness of 0.044 ± 0.075.
I37G showed an abundance fitness of -0.664 ± 0.028.
I60N showed an abundance fitness of -0.182 ± 0.07.
In the case of I60V, the abundance fitness is reported as -0.025 ± 0.03.
E58G showed an abundance fitness of -0.047 ± 0.03.
E58V showed an abundance fitness of -0.107 ± 0.036.
Work on K9R yielded an abundance fitness of -0.09 ± 0.027.
For K9M, the abundance fitness was -0.016 ± 0.041.
E6H gave an abundance fitness of -0.09 ± 0.063.
V15C showed an abundance fitness of -0.108 ± 0.038.
For A63Q, the abundance fitness was -0.907 ± 0.063.
I39L showed an abundance fitness of -0.107 ± 0.031.
Work on I39T yielded an abundance fitness of -0.321 ± 0.039.
Variant I39H has an abundance fitness of -0.44 ± 0.066.
Variant D12L has an abundance fitness of -0.173 ± 0.031.
In the case of D12Q, the abundance fitness is reported as -0.155 ± 0.043.
Variant R65E has an abundance fitness of 0.013 ± 0.034.
Variant R65Q has an abundance fitness of -0.004 ± 0.04.
For R73Y, the abundance fitness was -0.151 ± 0.058.
In the case of R73L, the abundance fitness is reported as -0.104 ± 0.033.
Q30H gave an abundance fitness of -0.279 ± 0.075.
For Q30L, the abundance fitness was -0.471 ± 0.036.
With I46F the abundance fitness was -0.023 ± 0.053.
With I46M the abundance fitness was -0.053 ± 0.04.
Work on I46R yielded an abundance fitness of -0.046 ± 0.027.
In the case of I46Q, the abundance fitness is reported as -0.007 ± 0.042.
I46A gave an abundance fitness of 0.03 ± 0.033.
For A40F, the abundance fitness was 0.013 ± 0.057.
In the case of A40Y, the abundance fitness is reported as -0.112 ± 0.062.
V71P showed an abundance fitness of -0.198 ± 0.043.
Work on P11F yielded an abundance fitness of -0.422 ± 0.076.
Variant P11E has an abundance fitness of -0.109 ± 0.041.
In the case of P11C, the abundance fitness is reported as -0.239 ± 0.048.

Variants of: B2
Test: as above
Settings: Homo sapiens
S1H showed an abundance fitness of -0.103 ± 0.2.
For S1K, the abundance fitness was -0.717 ± 0.15.
Work on S1V yielded an abundance fitness of -0.354 ± 0.07.
S1T showed an abundance fitness of -0.486 ± 0.14.
In the case of S1P, the abundance fitness is reported as -0.469 ± 0.15.
In the case of S1F, the abundance fitness is reported as -0.092 ± 0.084.
For S1L, the abundance fitness was -0.207 ± 0.065.
With S1D the abundance fitness was -0.027 ± 0.19.
With S1C the abundance fitness was -0.178 ± 0.067.
Work on S1G yielded an abundance fitness of -0.263 ± 0.054.
In the case of S1Y, the abundance fitness is reported as -0.122 ± 0.093.
S1E gave an abundance fitness of -0.581 ± 0.24.
S1W showed an abundance fitness of -0.83 ± 0.12.
S1R gave an abundance fitness of -0.344 ± 0.1.
In the case of S1A, the abundance fitness is reported as -0.395 ± 0.083.
In the case of S1M, the abundance fitness is reported as -0.227 ± 0.15.
Q7H gave an abundance fitness of -0.122 ± 0.085.
For Q7C, the abundance fitness was -0.154 ± 0.1.
Q7N showed an abundance fitness of -0.015 ± 0.16.
In the case of Q7P, the abundance fitness is reported as -0.021 ± 0.045.
Variant Q7T has an abundance fitness of -0.02 ± 0.072.
For Q7I, the abundance fitness was -0.068 ± 0.099.
For Q7F, the abundance fitness was -0.065 ± 0.067.
Q7D showed an abundance fitness of -0.032 ± 0.17.
In the case of Q7G, the abundance fitness is reported as 0.063 ± 0.033.
With Q7E the abundance fitness was 0.023 ± 0.17.
With Q7A the abundance fitness was 0.043 ± 0.053.
Q7K gave an abundance fitness of -0.051 ± 0.086.
Variant Q7V has an abundance fitness of -0.064 ± 0.041.
Q7L gave an abundance fitness of -0.085 ± 0.052.
Q7W gave an abundance fitness of -0.152 ± 0.049.
Work on Q7S yielded an abundance fitness of 0.036 ± 0.049.
Work on Q5K yielded an abundance fitness of 0.012 ± 0.09.
For Q5S, the abundance fitness was -0.007 ± 0.035.
Work on Q5P yielded an abundance fitness of -0.125 ± 0.055.
Q5T gave an abundance fitness of 0.049 ± 0.055.
With Q5F the abundance fitness was -0.109 ± 0.074.
With Q5R the abundance fitness was -0.068 ± 0.037.
For Q5E, the abundance fitness was -0.015 ± 0.088.
Q5A gave an abundance fitness of 0.037 ± 0.041.
Q5I showed an abundance fitness of -0.052 ± 0.078.
With Q5H the abundance fitness was -0.099 ± 0.081.
In the case of Q5D, the abundance fitness is reported as -0.021 ± 0.079.
Variant Q5L has an abundance fitness of -0.079 ± 0.043.
Work on Q5G yielded an abundance fitness of -0.12 ± 0.037.
Q5W gave an abundance fitness of -0.276 ± 0.051.
With Q5Y the abundance fitness was -0.055 ± 0.083.
